Measured values published in patent US9644034B2, “Anti-RSPO2 antibodies and uses thereof” (OncoMed Pharmaceuticals, Inc., priority 2011, dated 2017).

Experiments:
[1] = tested on: PN7 tumors; experiment: Serial transplantation of cells from treated PN7 tumors (tumorigenicity); type: in vivo, NOD-SCID mice; details: 90 cells injected, 40 days growth with no treatment; vs control antibody
Description: The PN7 tumors described above were processed to yield single cell suspensions. Mouse cells were depleted from the cell mixtures using biotinylated anti-H2K^d and anti-CD45 antibodies and streptavidin-conjugated magnetic beads. The remaining human tumor cells were serially transplanted into a new cohort of mice. 90 tumor cells from each treatment group were injected into the flanks of NOD-SCID mice (n=10 mice per group). Tumors were allowed to grow for 40 days with no treatment and tumor volumes were measured with electronic calipers.

[2] = tested on: PN7 pancreatic tumor cells; experiment: PN7 pancreatic tumor xenograft growth in NOD/SCID mice; type: in vivo; details: vs control antibody; 130M23 10 mg/kg, 18R5 20 mg/kg, gemcitabine once a week, intraperitoneal
Description: Dissociated PN7 pancreatic tumor cells (1×10^5cells) were injected subcutaneously into the flanks of 6-8 week old NOD/SCID mice. Tumors were allowed to grow for 25 days until they reached an average volume of 130 mm^3. The mice were randomized (n=10 per group) and treated with anti-RSPO2 antibody 130M23, anti-FZD antibody 18R5, gemcitabine, a combination of 130M23 and gemcitabine, a combination of 18R5 and gemcitabine, a combination of 130M23 and 18R5, a combination of 130M23, 18R5 and gemcitabine, or control antibody 1B7.11. Anti-RSPO2 antibody 130M23 was dosed at 10 mg/kg once a week, anti-FZD antibody 18R5 was dosed at 20 mg/kg once a week, and gemcitabine was dosed at […] once a week. Administration of the antibodies and gemcitabine was performed via injection into the intraperitoneal cavity. Tumor growth was monitored and tumor volumes were measured with electronic calipers at specific time points. Data are expressed as mean±S.E.M. A parallel set of experiments included mice treated with a FZD8-Fc soluble receptor (10 mg/kg) in combination with gemcitabine and FZD8-Fc in combination with 130M23 and gemcitabine.

[3] = tested on: RSPO; experiment: FACS RSPO binding activity of conditioned media from HEK-293 cells cotransfected with candidate humanized chains; details: conditioned media of cotransfected HEK-293 cells
Description: The functionality of each candidate variant humanized heavy chain and light chain was tested by cotransfection into mammalian cells. Each candidate humanized heavy chain described above was cotransfected into HEK-293 cells with the murine light chain cDNA, and conditioned media was assayed by FACS for RSPO binding activity. […] The 89M5-H2 humanized heavy chain was cotransfected into HEK-293 cells with each of the candidate humanized light chains, and conditioned media was again assayed for antigen binding by FACS. […] The 130M23-H1 humanized heavy chain was cotransfected into HEK-293 cells with each of the candidate humanized light chains, and conditioned media was again assayed for antigen binding by FACS.

[4] = tested on: RSPO1-induced β-catenin signaling; experiment: TOPflash luciferase assay in HEK-293 cells, Wnt3a plus human RSPO1; type: cell-based; details: Wnt3a 5 ng/ml, RSPO1 10 ng/ml; antibodies 10 to 0.625 μg/ml
Description: HEK-293 cells were transfected with a 6×TCF-luciferase reporter vector (TOPflash, Millipore, Billerica, Mass.). After 24-48 hrs, the transfected HEK-293 cells were incubated with a combination of Wnt3a (5 ng/ml) and human RSPO1 (10 ng/ml, R&D BioSystems) in the presence of anti-RSPO1 antibodies 89M2, 89M4, 89M5, 89M7, 89M19, and 89M25, or 2 irrelevant control antibodies 254M14 and 254M26 (2-fold dilutions at 10 μg/ml to 0.625 μg/ml). The cells were incubated for 16 hours and luciferase activity was measured using Steady-Glo® Luciferase Assay System according to the manufacturer's instructions (Promega, Madison, Wis.).

[5] = target: T1, human RSPO1 (Homo sapiens, UniProt Q2MKA7); experiment: FACS screening of hybridoma supernatants on HEK-293 cells expressing FLAG-RSPO1furin-CD4TM-GFP; type: binding
T1 construct: followed by the two furin-like domains of RSPO1 (aa 34-135); expressed in transfected cells; host or cells: HEK-293
T1 sequence (Q2MKA7 34-135): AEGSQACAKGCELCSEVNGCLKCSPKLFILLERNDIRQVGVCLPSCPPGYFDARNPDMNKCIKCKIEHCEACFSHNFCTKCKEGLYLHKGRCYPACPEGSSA
Text: Antibodies were generated against recombinant human RSPO1 protein amino acids 31-263 (R&D Systems, Minneapolis, Minn.). Mice (n=3) were immunized with RSPO1 protein using standard techniques. Sera from individual mice were screened against RSPO1 approximately 70 days after initial immunization using FACS analysis. The animal with the highest antibody titer was selected for final antigen boost after which spleen cells were isolated for hybridoma production. SP2/0 cells were used as fusion partners for the mouse spleen cells. Hybridoma cells were plated at 1 cell per well in 96 well plates, and the supernatants were screened against human RSPO1 by FACS analysis.
For FACS screening of anti-RSPO1 antibodies a chimeric fusion protein enabling cell surface expression of the N-terminal furin-like domains of human RSPO1 was constructed.
HEK-293 cells were transfected with FLAG-RSPOlfurin-CD4TM-GFP. After 48 hours, transfected cells were suspended in ice cold PBS containing 2% FBS and heparin and incubated on ice in the presence of 50 μl of hybridoma supernatants for 30 minutes. A second incubation with 100 μl PE-conjugated […] secondary antibody was performed to detect cells bound by antibody. Cells were incubated with an anti-FLAG antibody (Sigma-Aldrich, St. Louis, Mo.) as a positive control and an anti-PE antibody as a negative control. The cells were analyzed on a FACSCalibur instrument (BD Biosciences, San Jose, Calif.) and the data was processed using FlowJo software.

[6] = target: T2, binding of RSPO1 to LGR5 (Homo sapiens, UniProt Q2MKA7); experiment: FACS: blocking of soluble RSPO1-Fc binding to LGR5 on HEK-293 cells; details: RSPO1-Fc 10 μg/ml, antibodies 10 μg/ml
T2 construct: full-length human RSPO1, RSPO2, RSPO3 and RSPO4 were ligated in-frame to a human Fc region; made in house; host or cells: RSPO1-Fc: insect cells (baculovirus); LGR5 construct: transiently transfected HEK-293
T2 sequence (Q2MKA7 21-263): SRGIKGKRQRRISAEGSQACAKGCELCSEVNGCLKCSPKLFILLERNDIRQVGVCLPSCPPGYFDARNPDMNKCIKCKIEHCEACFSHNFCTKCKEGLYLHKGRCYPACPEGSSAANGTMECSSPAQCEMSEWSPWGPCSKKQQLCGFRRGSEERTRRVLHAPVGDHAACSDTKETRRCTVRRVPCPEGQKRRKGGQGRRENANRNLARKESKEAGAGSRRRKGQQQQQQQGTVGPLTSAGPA
Description: HEK-293 cells were transiently transfected with the FLAG-LGR5-CD4TM-GFP construct (previously described in Example 2). After 48 hours, transfected cells were suspended in ice cold PBS containing 2% FBS and heparin and incubated on ice in the presence of RSPO1-Fc protein (10 μg/ml) and antibodies 89M2, 89M4, 89M5, 89M7, 89M19 or 89M25 (10 μg/ml). A second incubation with 100 μl PE-conjugated anti-human Fc secondary antibody was performed to detect cells bound by the RSPO1-Fc fusion protein. The cells were analyzed on a FACSCalibur instrument (BD Biosciences, San Jose, Calif.) and the data was processed using FlowJo software.

B1: 18R5: anti-FZD antibody, Wnt pathway inhibitor (antibody, chains of the INN, looked up, V domains shown)
VH: EVQLVESGGGLVQPGGSLRLSCAASGFTFSHYTLSWVRQAPGKGLEWVSVISGDGSYTYYADSVKGRFTISSDNSKNTLYLQMNSLRAEDTAVYYCARNFIKYVFANWGQGTLVTVSS
VL: DIELTQPPSVSVAPGQTARISCSGDNIGSFYVHWYQQKPGQAPVLVIYDKSNRPSGIPERFSGSNSGNTATLTISGTQAEDEADYYCQSYANTLSLVFGGGTKLTVL
tumorigenicity of cells isolated from treated mice [1]: greatly decreased tumorigenicity | reduction in tumor growth [2]: approximately 55%

B2: 89M5-L2: humanized 89M5 light chain variant (SEQ ID NO:69) (protein)
light: DIQMTQSPSSLSASVGDRVTITCKASQDVIFAVAWYQQKPGKAPKLLIYWASTRHTGVPSRFSGSGSGTDYTLTISSLQPEDFATYYCQQHYSTPWTFGGGTKVEIKRTVAAPSVFIFPPSDEQLKSGTASVVCLLNNFYPREAKVQWKVDNALQSGNSQESVTEQDSKDSTYSLSNTLTLSKADYEKHKVYACEVTHQGLSSPVTKSFNRGEC
modifications: h89M5-H2L2 Light chain amino acid sequence
binding by FACS among candidate humanized chain variants [3]: most robust binding

B3: 130M23-L2: humanized 130M23 light chain variant (SEQ ID NO:71) (protein)
light: DIQMTQSPSSLSASVGDRVTITCKASQDVSSAVAWYQQKPGKAPKLLIYWASTRHTGVPSRFSGSGSGTDFTLTISSVQAEDFATYYCQQHYSTPWTFGQGTKVEIKRTVAAPSVFIFPPSDEQLKSGTASVVCLLNNFYPREAKVQWKVDNALQSGNSQESVTEQDSKDSTYSLSNTLTLSKADYEKHKVYACEVTHQGLSSPVTKSFNRGEC
modifications: h130M23-H1L2 Light chain amino acid sequence
binding by FACS among candidate humanized chain variants [3]: most robust binding

B4: 89M2: anti-RSPO1 monoclonal antibody; same heavy and light chain variable regions as 89M5 (antibody, V domains shown)
VH: EVQLQQSGPELVKPGASVKISCKTSGYTFTGYTMHWVRQSHGKTLEWIGGINPNNGGTTYNQNFKGKATLTVEKSSTTAYLELRSLTSEDSALYYCARKEFSDGYYFFAYWGQGTLVTVSA
VL: DIVMTQSHKFMSTSVGDRVNITCKASQDVIFAVAWYQQKPGQSPKLLIYWASTRHTGVPDRFTGSVSGTDYTLTISSVQAEDLALYYCQQHYSTPWTFGGGTKLEIK
blocking of RSPO1-induced β-catenin signaling [4]: blocked | binding to RSPO1 (FACS) [5]: bound | blocking of binding of RSPO1 to LGR5 [6]: blocked

B5: 89M4: anti-RSPO1 monoclonal antibody; same heavy and light chain variable regions as 89M5 (antibody, V domains shown)
VH: EVQLQQSGPELVKPGASVKISCKTSGYTFTGYTMHWVRQSHGKTLEWIGGINPNNGGTTYNQNFKGKATLTVEKSSTTAYLELRSLTSEDSALYYCARKEFSDGYYFFAYWGQGTLVTVSA
VL: DIVMTQSHKFMSTSVGDRVNITCKASQDVIFAVAWYQQKPGQSPKLLIYWASTRHTGVPDRFTGSVSGTDYTLTISSVQAEDLALYYCQQHYSTPWTFGGGTKLEIK
blocking of RSPO1-induced β-catenin signaling [4]: blocked | binding to RSPO1 (FACS) [5]: bound | blocking of binding of RSPO1 to LGR5 [6]: blocked

B6: 130M23-H1: humanized 130M23 heavy chain variant (SEQ ID NO:70) (antibody)
heavy: EVQLVESGGGLVKPGGSLRLSCAASGFTFSSYAMSWVRQAPGKGLEWVSSISSGGSTYYPDSVKGRFTISRDNAKNSLYLQMNSLRAEDTAVYYCARGGDPGVYNGDYEDAMDYWGQGTTVTVSSASTKGPSVFPLAPCSRSTSESTAALGCLVKDYFPEPVTVSWNSGALTSGVHTFPAVLQSSGLYSLSSVVTVPSSNFGTQTYTCNVDHKPSNTKVDKTVERKCCVECPPCPAPPVAGPSVFLFPPKPKDTLMISRTPEVTCVVVDVSHEDPEVQFNWYVDGVEVHNAKTKPREEQFNSTFRVVSVLTVVHQDWLNGKEYKCKVSNKGLPAPIEKTISKTKGQPREPQVYTLPPSREEMTKNQVSLTCLVKGFYPSDIAVEWESNGQPENNYKTTPPMLDSDGSFFLYSKLTVDKSRWQQGNVFSCSVMHEALHNHYTQKSLSLSPGK
modifications: h130M23-H1L2 Heavy chain amino acid sequence
binding by FACS among candidate humanized chain variants [3]: most robust binding

B7: 89M5-H2: humanized 89M5 heavy chain variant (SEQ ID NO:68) (antibody)
heavy: QVQLVQSGAEVKKPGASVKVSCKTSGYTFTGYTMHWVRQAPGQRLEWMGGINPNNGGTTYNQNFKGRVTITRDTSASTAYMELSSLRSEDTAVYYCARKEFSDGYYFFAYWGQGTLVTVSSASTKGPSVFPLAPCSRSTSESTAALGCLVKDYFPEPVTVSWNSGALTSGVHTFPAVLQSSGLYSLSSVVTVPSSNFGTQTYTCNVDHKPSNTKVDKTVERKCCVECPPCPAPPVAGPSVFLFPPKPKDTLMISRTPEVTCVVVDVSHEDPEVQFNWYVDGVEVHNAKTKPREEQFNSTFRVVSVLTVVHQDWLNGKEYKCKVSNKGLPAPIEKTISKTKGQPREPQVYTLPPSREEMTKNQVSLTCLVKGFYPSDIAVEWESNGQPENNYKTTPPMLDSDGSFFLYSKLTVDKSRWQQGNVFSCSVMHEALHNHYTQKSLSLSPGK
modifications: h89M5-H2L2 Heavy chain amino acid sequence
binding by FACS among candidate humanized chain variants [3]: most robust binding
